One series relates to carcinoma cell lines. The experiment in a line: In vitro binding of radiolabeled peptides to several carcinoma cell lines. The class given is cell-based, human. In outline: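 Cells seeded 48 h were incubated with ^125I-labeled peptide in serum-free medium for 10 or 60 min, alone or with unlabeled peptide (10^−4 to 10^−11 M); HNO97 kinetics, efflux and internalization (37° C and 4° C, acid strip) used ^177Lu-DOTA-SFITGv6. Gamma counting gave % applied dose per 10^6 cells.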

Another series concerns HNO97 cells. The class given is binding, human. To be noted: 48 h. The protocol:
For binding studies, 2.5×10^5 to 4×10^5 cells were seeded in 6-well plates and cultivated for 48 hours. Cells were incubated for 60 min with 1 mL serum-free medium containing the ^125I-labeled peptide (see above). For competition experiments, cells were simultaneously exposed to unlabeled (10^-4 M to 10^-10 M) and ^125I-labeled peptides. After three washing steps with PBS (pH 7.4) the cells were lysed with 0.5 mL of 0.3 M NaOH. Experiments concerning the internalization, kinetics and efflux were additionally performed with ^177Lu-DOTA-SFITGv6. To evaluate kinetics and efflux HNO97 cells were incubated for different time intervals (10 min to 480 min) and 60 min, respectively, with ^177Lu-DOTA-SFITGv6 and lysed as described. To continue with the efflux experiment radioactive medium was replaced by non-radioactive medium and cells were incubated again for 60 to 240 min before measuring radioactivity of the cell lysates and the medium. For internalization experiments the cells were exposed to ^177Lu-DOTA-SFITGv6 for different time intervals (10 to 240 min) at 37° C. and 4° C. After three washing steps with PBS the cells were incubated with 1 mL of glycine-HCl 50 mmol/L in PBS (pH 2.8) for 10 min at RT to remove the surface bound activity. Then, cells were washed with 3 mL of ice-cold PBS and lysed as described. Radioactivity was determined in a gamma counter and calculated as percentage of the applied dose per 1×10^6 cells. Experiments were performed three times, and three repetitions per independent experiment were acquired.

Series [1] can be described thus: Biodistribution, HNO97 xenografts. The following applies: Balb/c nude, mouse, iv, 1 MBq, total radioactivity.
For series [2], the system named is metastasized pancreatic cancer. The experiment in a line: PET/CT and scintigraphy of pancreatic cancer patient. The class given is in vivo, human. The following applies: 1 day after 6.5 GBq. The protocol: PET/CT scans of tumor patients and body scintigraphy were performed as described in Example 1.

Molecules are shown by their SMILES. Where a SMILES comes first, the peptide text is derived from it. Bridges are numbered along the chain shown (N, C = ends). The star is where a group is joined. DOTA = O=C(O)CN1CCN(CC(=O)O)CCN(CC(=O)*)CCN(CC(=O)O)CC1

Results on two compounds are retold here after patent US20200131227A1, “POLYPEPTIDE WITH TUMOUR BINDING ACTIVITY” (RUPRECHT-KARLS-UNIVERSITÄT HEIDELBERG, priority 2017, published 2020).

On to `CSCC[C@@H]1NC(=O)[C@H](CC(C)C)NC(=O)[C@H](CC(=O)O)NC(=O)CNC(=O)[C@H](CCCNC(=N)N)NC(=O)[C@H](Cc2ccccc2)NC(=O)[C@H]([C@@H](C)O)NC(=O)[C@@H](NC(=O)[C@H](CCCNC(=N)N)NC(=O)CN)CSSC[C@@H](C(=O)N[C@@H](Cc2ccc(O)cc2)C(=O)N2CCC[C@H]2C(=O)N[C@@H](CC(=O)O)C(=O)O)NC(=O)[C@H](CC(C)C)NC(=O)[C@H](CCC(N)=O)NC1=O` [SFITGv6, NH2-G-R-C1-T-F-R-G-D-L-M-Q-L-C1-Y-P-D-COOH] (H-GRCTFRGDLMQLCYPD-OH; disulfide 3-13), for which the “binding after substitution of lysine (K) to leucine (L) in FRGDKMQL” value in the series on carcinoma cell lines (HNO97 and UM-UC-5 cells, ^125I-labeled, 60 min, versus SFPF-10) is reported as “substantially increased the binding”. The same compound yielded a half-maximal inhibitory concentration (IC50) with HNO97 cells of 16.1 nM. The tissue uptake in series [1] (in vivo, activity in the blood) was under 1 %ID/g; in series [1] (in vivo, uptake in the kidneys, hardly any clearance), about 42 %ID/g. Also, the tissue uptake at 0.5 h in series [1] was over 6 %ID/g. In series [1], the tissue uptake at 6 h was 2.4 %ID/g.
For the compound `CC(C)C[C@@H]1NC(=O)[C@H](CC(=O)O)NC(=O)CNC(=O)[C@H](CCCNC(=N)N)NC(=O)CNC(=O)[C@H]([C@@H](C)O)NC(=O)[C@@H](NC(=O)[C@H](CCCNC(=N)N)NC(=O)CNC(=O)CN2CCN(CC(=O)O)CCN(CC(=O)O)CCN(CC(=O)O)CC2)CSSC[C@@H](C(=O)N[C@@H](Cc2ccc(O)cc2)C(=O)N2CCC[C@H]2C(=O)N[C@@H](CC(=O)O)C(N)=O)NC(=O)[C@H](CC(C)C)NC(=O)[C@H](CCCNC(=N)N)NC(=O)CNC1=O` [^177Lu-DOTA-SFLAP3, metal not drawn] ({DOTA}-GRCTGRGDLGRLCYPD-NH2; disulfide 3-13; N-terminus and C-terminus assumed), in the series with carcinoma cell lines (after 240 min (FIG. 17C)), the “binding/internalization late in efflux experiment” value is on record as “moderate renewed increase of binding/internalization”. In series [1] (in vivo), the tissue uptake at 1 h is 9.1 ± 1.2 %ID/g and the tissue uptake at 6 h was found to be 5.8 ± 1.44 %ID/g. Further, the scintigraphic accumulation entry in series [2] is “accumulation in the metastatic sites”.

The term IC50 denotes the midpoint of a concentration-inhibition curve. Lower therefore signals higher potency. As usually defined, the tissue uptake is the percentage of the injected dose found per gram of tissue.
